Reference: PMC4749553 (2015)

Target: T1, His6-Tim44(43–263) (Saccharomyces cerevisiae (strain ATCC …, UniProt Q01852))
T1 chain: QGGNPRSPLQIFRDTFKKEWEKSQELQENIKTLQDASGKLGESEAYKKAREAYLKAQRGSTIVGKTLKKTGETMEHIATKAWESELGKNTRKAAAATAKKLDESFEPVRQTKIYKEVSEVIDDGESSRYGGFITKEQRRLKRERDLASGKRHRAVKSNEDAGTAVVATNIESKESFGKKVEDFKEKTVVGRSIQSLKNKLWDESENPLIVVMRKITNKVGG
Assay: Ni-NTA pull-down, Coomassie-stained SDS-PAGE

B1: Tim44(211–431) (protein)
chain: NIESKESFGKKVEDFKEKTVVGRSIQSLKNKLWDESENPLIVVMRKITNKVGGFFAETESSRVYSQFKLMDPTFSNESFTRHLREYIVPEILEAYVKGDVKVLKKWFSEAPFNVYAAQQKIFKEQDVYADGRILDIRGVEIVSAKLLAPQDIPVLVVGCRAQEINLYRKKKTGEIAAGDEANILMSSYAMVFTRDPEQIDDDETEGWKILEFVRGGSRQFT
binding result: no binding
